B1: M. smegmatis σ^A (natural protein)
chain: MAATKASPATEEPVKRTATKTPAKKAPAKRAAKSAAAKAGGKAPAKKAPAKRAAKGTAAKPEDGVTDDLEVTDDLEAEPGEDLDVEDTDLELDDLDSDDDTAVEDEEEEADAATPAVATAKAADDDIDEPSEKDKASGDFVWDEEESEALRQARKDAELTASADSVRAYLKQIGKVALLNAEEEVELAKRIEAGLYATQKLAELAEKGEKLPVQQRRDMQWICRDGDRAKNHLLEANLRLVVSLAKRYTGRGMAFLDLIQEGNLGLIRAVEKFDYTKGYKFSTYATWWIRQAITRAMADQARTIRIPVHMVEVINKLGRIQRELLQDLGREPTPEELAKEMDITPEKVLEIQQYAREPISLDQTIGDEGDSQLGDFIEDSEAVVAVDAVSFTLLQDQLQSVLETLSEREAGVVRLRFGLTDGQPRTLDEIGQVYGVTRERIRQIESKTMSKLRHPSRSQVLRDYLD
notes: primary (group 1) sigma factor σ^A of Mycobacterium smegmatis; domains σ^A2, σ^A3, σ^A4 named in the text; Plasmid Msm pET-SUMO σ^A received from C; Stallings; also called Msm σ^A; SigA
B2: M. smegmatis RbpA (natural protein)
chain: MADRVLRGSRLGAVSYETDRNHDLAPRQVARYRTDNGEEFDVPFADDAEIPGTWLCRNGLEGTLIEGDVPEPKKVKPPRTHWDMLLERRSVEELEELLKERLDLIKAKRRGTGS
notes: RbpA of Mycobacterium smegmatis mc2155 (MSmeg_3858), cloned from genomic DNA into pet21C; elements NTT (25 residues, disordered in the crystal), CD, BL (residues 70-79), SID; 114 residues by the printed truncations (28-114aa, 72-114aa); the complex was held on the Ni2+ column by the His10-SUMO tag of σ^A and came in the flow-through after that tag was cleaved; The NTT was in the crystallised …

Target: T1, M. smegmatis RNA polymerase β’ subunit (M. smegmatis, UniProt A0QS66 1-1317)
T1 construct: RNA polymerase β’ subunit of Mycobacterium smegmatis mc2155, native chromosomal copy of rpoC with a C-terminal PreScission site and His10 tag; In the crystal β’ stood as part of the whole σ^A-holoenzyme, not as an isolated subunit; also called RNAP β’-ppx-His10; rpoC product
Assay: crystal structure; Msm RbpA/σ^A-holo mixed 1:1 with T10 upstream fork promoter DNA (RbpA/TIC, 446 kDa); hanging drop vapor diffusion at 22°C, 0.1 M Bis-Tris pH 6.0, 0.2 M LiSO4, 16% PEG 3350, 2.5% ethylene glycol; 2.76 Å
Settings: both partners purified

Binder	binding result
B1	binds
B2	binds
